In patent US20240240209A1, “SYNTHESIS OF ENANTIOPURE CIS-A-IRONE FROM A RENEWABLE CARBON SOURCE” (Agency for Science, Technology and Research, priority 2021, published 2024):

Assay: Cell lysate reaction of pMT enzymes with psi-ionone, irones quantified by HS-SPME-GCMS
Type: biochemical
Conditions: for irone production / methyltransferase activity towards psi-ionone (in words): cell lysate reaction, vs parent or control; for cis-α-irone content (percentage of cis-α-irone in the irone mixture): cell extracts with psi-ionone; for fold change in cis-α-irone produced: AUC vs non-mutated (=1)
Method: Using the structure of pMT1 in complex with the cofactor S-adenosyl-L-homocysteine (SAH) and the substrate teleocidin A1 (PDB id: 5GM2) as a template, pMT1 bound to each of the four isomers of α-irone was modelled with the aim of identifying amino acid residues that could be critical to increase cis-α-irone or decrease trans-α-irone production (FIGS. 2d and 2e). […] Site-directed mutagenesis of the 24 residues was carried out with degenerative primers. Subsequently, the mutants of each site were pooled together, and examined if the activity or product-selectivity of the pooled mutants were increased (FIG. 8). This reduced the number of screening reactions to 24, which is manageable when a high-throughput enzymatic assay is not available. […] One residue was chosen and subjected to site-saturation mutagenesis by using degenerative primers containing NNN or NNK. The plasmid library was then transformed into E. coli BL21 (DE3) cells and plated on agar plate containing autoinduction media^19. […] Subsequently, the colonies were collected and resuspended in phosphate saline buffer. Equal number of cells was taken for lysis and cell lysate reactions were carried out in capped SPME-GC vials at 28° C. for 2 days. HS-SPME-GCMS analysis was used to quantify the amount of irones produced by each pooled-colony reaction. […] 24 residues including the control Gly85 (G85m) were subjected to site-saturation mutagenesis, using pMT1 as the template. […] The amount of cis-α-irone produced was estimated based on the area under the gas chromatogram curve (AUC). The fold change is calculated by comparing the AUC of cis-α-irone produced by the mutant enzyme to that of non-mutated.
For each pMT mutant, it was transformed into BL21 and grown in autoinduction media with 5 mM lactose at 20° C. for 36 hrs. Then, cells were pelleted and concentrated 10 times by adding 1 ml of PBS. The OD600 was measured and 40*600 OD*ul cells were transferred into a new 1.5 ml tube. The cells were spun down and resuspended in 600 μl of lysis buffer (1×DNase buffer, 150 mM NaCl, 0.5% glycerol, 1 mg/ml lysozyme and 20U of DNasel). The cells were incubated for 2 hrs at 20° C. with shaking at 300 rpm. Following that, 2 cycles of freeze-thaw was done to completely lyse the cells. At the end of the 2nd thawing, the cell lysate was used to setup a 1 ml reaction in 2 ml GC vials. The reaction consisted of 50 mM Tris (pH7), 10 mM MgCl2, 60 mM NaCl, 0.2 mM SAM and 10 mg/L of psi-ionone and caryophyllene each. To this, 500 μl of cell lysate was added while the remaining 100 μl was used for SDS-PAGE to analyze the total and soluble protein expression. The reaction was incubated for 2 days at 28° C., 300 rpm prior to extraction of cis-α-irone with 500 μl hexane. From this, 20 μl of organic layer was taken into 180 μl hexane for GCMS analysis.
For the mutant pMT activity screening, the reactants and products were analyzed by head space solid phase microextraction (HS-SPME) coupled with an Agilent 5977B gas chromatography (GC) system equipped with Agilent DB-5 ms column (30 m×250 μm×0.25 μm) and mass spectrometry (MS) with high efficiency source. The reaction mixtures were carried out in SPME vials which were incubated at 60° C. for 20 mins to allow the release of volatile compounds. The absorbent fiber (50/30 μm divinylbenzol/carboxen/polydimethyl-SPME fiber, SUPELCO) was then exposed to the headspace of the vial for 20 mins. The extracted analytes were desorbed at the GC inlet at 250° C. for 1 min and injected into GC with a split ratio of 200:1. The GC oven temperature increased from 50° C. to 140° C. at a rate of 10° C./min and held at 140° C. for 10 min. Subsequently, the temperature was increased to 320° C. at a rate of 60° C./min and held at 320° C. for 2 mins.

B1: SaMT: methyltransferase from Streptomyces albireticuli, about 68% sequence identity to pMT1 (protein, listed as Streptomyces albireticuli)
chain: MPQESAQELKVTADEVGDWYDRFGDIYHETLGESVHCGLWFPPDEPHPTSMDLVDLSSRAQDRYTDYLIETLDPRPGDHVLDIGCGTGRSALRLVQQRDARVTGVAISKEQIARADRLANEHGLTDRLTFAYADAQALPYEDGTFDRAWAVESICHMDRAKALQEAWRVLRPGGDLMVLESVLTGELTAEDTAVFQVMLASNLPPTLPEFFGLVGDAGFETLELKDLSANLAMTMNVMALVCHDRKEEFTERFGAEFMEGVVQGLPKAREVVARKTRFFLVMLRKPLA
irone production / methyltransferase activity towards psi-ionone (in words): converted psi-ionone to predominantly trans-α-irone

B2: pMT4: pMT1 with Y200F S182E L273V (protein)
chain: MPQEARTPQQQVTADEVGDWYDKFGEVYHLTLGESVHCGLWFPPDAPVPQDMELVTMSSQAQDRYTDYLIETLDPKAGQHLLDIGCGTGRTALKAARQRGIAVTGVAVSKEQIAAANRLAAGHGLTERLTFEVADAMRLPYEDESFDCAWAIESLCHMDRAKALGEAWRVLKPGGDLLVLEEVVTEELTEPETALFETLFAANVPPRLGEFFDIVSGAGFHTLSLKDLSANLAMTMNVFALGVYSRRAEFTERFGAEFVDGLLAGLGSAQETVIRKTRFFMATLRKPAV
modifications: Modified from pMT1
notes: pMT1 with Y200F S182E L273V
cis-α-irone content (percentage of cis-α-irone in the irone mixture): ~80% | irone production / methyltransferase activity towards psi-ionone (in words): highest cis-α-irone and lowest trans-α-irone production | fold change in cis-α-irone produced (pMT3_L273 mutants): 1.5 | fold change in cis-α-irone produced (pMT4_L180 mutants): 1 | fold change in cis-α-irone produced (pMT4_T277 mutants): 1.0

B3: pMT8: pMT1 with Y200F S182E L273V L180A A202L C156P (protein)
chain: MPQEARTPQQQVTADEVGDWYDKFGEVYHLTLGESVHCGLWFPPDAPVPQDMELVTMSSQAQDRYTDYLIETLDPKAGQHLLDIGCGTGRTALKAARQRGIAVTGVAVSKEQIAAANRLAAGHGLTERLTFEVADAMRLPYEDESFDCAWAIESLPHMDRAKALGEAWRVLKPGGDLLVAEEVVTEELTEPETALFETLFALNVPPRLGEFFDIVSGAGFHTLSLKDLSANLAMTMNVFALGVYSRRAEFTERFGAEFVDGLLAGLGSAQETVIRKTRFFMATLRKPAV
modifications: Modified from pMT1
notes: pMT1 with Y200F S182E L273V L180A A202L C156P
irone production / methyltransferase activity towards psi-ionone (in words): further improved the TTN of the enzyme | fold change in cis-α-irone produced (pMT6_C156 mutants): 1.1

B4: pMT6: pMT1 with Y200F S182E L273V L180A A202L (protein)
chain: MPQEARTPQQQVTADEVGDWYDKFGEVYHLTLGESVHCGLWFPPDAPVPQDMELVTMSSQAQDRYTDYLIETLDPKAGQHLLDIGCGTGRTALKAARQRGIAVTGVAVSKEQIAAANRLAAGHGLTERLTFEVADAMRLPYEDESFDCAWAIESLCHMDRAKALGEAWRVLKPGGDLLVAEEVVTEELTEPETALFETLFALNVPPRLGEFFDIVSGAGFHTLSLKDLSANLAMTMNVFALGVYSRRAEFTERFGAEFVDGLLAGLGSAQETVIRKTRFFMATLRKPAV
modifications: Modified from pMT1
notes: pMT1 with Y200F S182E L273V L180A A202L
irone production / methyltransferase activity towards psi-ionone (in words): significantly increased the cis-α-irone concentration | β-irone share of the irone mixture (cell lysate with psi-ionone): ~30% | fold change in cis-α-irone produced (pMT5_A202 mutants): 4.3 | fold change in cis-α-irone produced (pMT6_C156 mutants): 1.0 | fold change in cis-α-irone produced (pMT6_Y65 mutants): 1.0

B5: pMT2: pMT1 with Y200F (protein)
chain: MPQEARTPQQQVTADEVGDWYDKFGEVYHLTLGESVHCGLWFPPDAPVPQDMELVTMSSQAQDRYTDYLIETLDPKAGQHLLDIGCGTGRTALKAARQRGIAVTGVAVSKEQIAAANRLAAGHGLTERLTFEVADAMRLPYEDESFDCAWAIESLCHMDRAKALGEAWRVLKPGGDLLVLESVVTEELTEPETALFETLFAANVPPRLGEFFDIVSGAGFHTLSLKDLSANLAMTMNVFALGVYSRRAEFTERFGAEFVDGLLAGLGSAQETLIRKTRFFMATLRKPAV
modifications: Modified from pMT1
notes: pMT1 with Y200F
cis-α-irone content (percentage of cis-α-irone in the irone mixture): ~68% | fold change in cis-α-irone produced (pMT1_Y200 mutants): 12.2 | fold change in cis-α-irone produced (pMT2_C156 mutants): 1.0 | fold change in cis-α-irone produced (pMT2_F196 mutants): 1.0 | fold change in cis-α-irone produced (pMT2_L180 mutants): 1.0 | fold change in cis-α-irone produced (pMT2_L232 mutants): 1.0 | fold change in cis-α-irone produced (pMT2_M236 mutants): 1.0 | fold change in cis-α-irone produced (pMT2_S182 mutants): 1.0 | fold change in cis-α-irone produced (pMT2_T277 mutants): 1.0 | fold change in cis-α-irone produced (pMT2_V36 mutants): 1.0 | improvement of total turnover number (TTN) (vs pMT1, TTN = cis-α-irone produced / soluble pMT enzyme): > 12 fold

B6: pMT1_Y200L: pMT1 with Y200L (protein)
chain: MPQEARTPQQQVTADEVGDWYDKFGEVYHLTLGESVHCGLWFPPDAPVPQDMELVTMSSQAQDRYTDYLIETLDPKAGQHLLDIGCGTGRTALKAARQRGIAVTGVAVSKEQIAAANRLAAGHGLTERLTFEVADAMRLPYEDESFDCAWAIESLCHMDRAKALGEAWRVLKPGGDLLVLESVVTEELTEPETALFETLLAANVPPRLGEFFDIVSGAGFHTLSLKDLSANLAMTMNVFALGVYSRRAEFTERFGAEFVDGLLAGLGSAQETLIRKTRFFMATLRKPAV
irone production / methyltransferase activity towards psi-ionone (in words): improved trans-α-irone production | fold change in cis-α-irone produced (pMT1_Y200 mutants): 0.4

B7: pMT5: pMT1 with Y200F S182E L273V L180A (protein)
chain: MPQEARTPQQQVTADEVGDWYDKFGEVYHLTLGESVHCGLWFPPDAPVPQDMELVTMSSQAQDRYTDYLIETLDPKAGQHLLDIGCGTGRTALKAARQRGIAVTGVAVSKEQIAAANRLAAGHGLTERLTFEVADAMRLPYEDESFDCAWAIESLCHMDRAKALGEAWRVLKPGGDLLVAEEVVTEELTEPETALFETLFAANVPPRLGEFFDIVSGAGFHTLSLKDLSANLAMTMNVFALGVYSRRAEFTERFGAEFVDGLLAGLGSAQETVIRKTRFFMATLRKPAV
modifications: Modified from pMT1
notes: pMT1 with Y200F S182E L273V L180A
cis-α-irone content (percentage of cis-α-irone in the irone mixture): ~90% | fold change in cis-α-irone produced (pMT4_L180 mutants): 1.8 | fold change in cis-α-irone produced (pMT5_A102 mutants): 1.0 | fold change in cis-α-irone produced (pMT5_A202 mutants): 1.0 | fold change in cis-α-irone produced (pMT5_T104 mutants): 1

B8: ScMT: about 66% homologous enzyme from Streptomyces clavuligerus (protein, listed as Streptomyces clavuligerus)
chain: MPQELAGELRVTAAQVGAWYDQFGDIYHQTLGESIHCGLWFPPDEPHPARVDLVSLSSEAQDRFTDYLIKTLDPHADQHVLDIGCGTGRSALRLSQQRGAKVTGVAISKVQIEHANRLAETHDLSDRLVFEHADAMHLPYEDESFDSAWAIESLCHMDRAKALREAYRVLRPGGDFLLLESVLTNPLTEAEATSLDTMLAANTPLWLPEFFELITRAGFETLELKDLSANLAMTMNVLELVCHDRREEFTRRFGAEFTELLMAGLPEARNITARKTRFFMLLLRKPPVPAN
irone production / methyltransferase activity towards psi-ionone (in words): not active towards psi-ionone
